Target: T1, PLY (W433F) toxoid (Streptococcus pneumoniae, UniProt P0C2J9 2-471)
T1 construct: also called Pdb PLY (W433F); Pdb (W433F)
Assay: immunofluorescence co-localization in human DCs

B1: Mannose receptor C type 1 on human monocyte-derived dendritic cells (receptor)
chain: LLDTRQFLIYNEDHKRCVDAVSPSAVQTAACNQDAESQKFRWVSESQIMSVAFKLCLGVPSKTDWVAITLYACDSKSEFQKWECKNDTLLGIKGEDLFFNYGNRQEKNIMLYKGSGLWSRWKIYGTTDNLCSRGYEAMYTLLGNANGATCAFPFKFENKWYADCTSAGRSDGWLWCGTTTDYDTDKLFGYCPLKFEGSESLWNKDPLTSVSYQINSKSALTWHQARKSCQQQNAELLSITEIHEQTYLTGLTSSLTSGLWIGLNSLSFNSGWQWSDRSPFRYLNWLPGSPSAEPGKSCVSLNPGKNAKWENLECVQKLGYICKKGNTTLNSFVIPSESDVPTHCPSQWWPYAGHCYKIHRDEKKIQRDALTTCRKEGGDLTSIHTIEELDFIISQLGYEPNDELWIGLNDIKIQMYFEWSDGTPVTFTKWLRGEPSHENNRQEDCVVMKGKDGYWADRGCEWPLGYICKMKSRSQGPEIVEVEKGCRKGWKKHHFYCYMIGHTLSTFAEANQTCNNENAYLTTIEDRYEQAFLTSFVGLRPEKYFWTGLSDIQTKGTFQWTIEEEVRFTHWNSDMPGRKPGCVAMRTGIAGGLWDVLKCDEKAKFVCKHWAEGVTHPPKPTTTPEPKCPEDWGASSRTSLCFKLYAKGKHEKKTWFESRDFCRALGGDLASINNKEEQQTIWRLITASGSYHKLFWLGLTYGSPSEGFTWSDGSPVSYENWAYGEPNNYQNVEYCGELKGDPTMSWNDINCEHLNNWICQIQKGQTPKPEPTPAPQDNPPVTEDGWVIYKDYQYYFSKEKETMDNARAFCKRNFGDLVSIQSESEKKFLWKYVNRNDAQSAYFIGLLISLDKKFAWMDGSKVDYVSWATGEPNFANEDENCVTMYSNSGFWNDINCGYPNAFICQRHNSSINATTVMPTMPSVPSGCKEGWNFYSNKCFKIFGFMEEERKNWQEARKACIGFGGNLVSIQNEKEQAFLTYHMKDSTFSAWTGLNDVNSEHTFLWTDGRGVHYTNWGKGYPGGRRSSLSYEDADCVVIIGGASNEAGKWMDDTCDSKRGYICQTRSDPSLTNPPATIQTDGFVKYGKSSYSLMRQKFQWHEAETYCKLHNSLIASILDPYSNAFAWLQMETSNERVWIALNSNLTDNQYTWTDKWRVRYTNWAADEPKLKSACVYLDLDGYWKTAHCNESFYFLCKRSDEIPATEPPQLPGRCPESDHTAWIPFHGHCYYIESSYTRNWGQASLECLRMGSSLVSIESAAESSFLSYRVEPLKSKTNFWIGLFRNVEGTWLWINNSPVSFVNWNTGDPSGERNDCVALHASSGFWSNIHCSSYKGYICKRPKIIDAKPTHELLTTKADTRKMDPSKPSSNVAGVVIIVILLILTGAGLAAYFFYKKRRVHLPQEGAFENTLYFNSQSSPGTSDMKDLVGNIEQNEHSVI
notes: also called MRC-1
  binding result: no binding (tested: 0.2 µg/ml)

— patent US20230365647A1 (published 2023)
